Source: patent US20250250357A1 (NANJING ZAIMING PHARMACEUTICAL, published 2025)

T1: monkey MSLN full-length protein (NCBI: XP_028696439.1) expressed on HEK293T-monkey MSLN cells (monkey)
T1 construct: Whole encoded precursor
T1 chain: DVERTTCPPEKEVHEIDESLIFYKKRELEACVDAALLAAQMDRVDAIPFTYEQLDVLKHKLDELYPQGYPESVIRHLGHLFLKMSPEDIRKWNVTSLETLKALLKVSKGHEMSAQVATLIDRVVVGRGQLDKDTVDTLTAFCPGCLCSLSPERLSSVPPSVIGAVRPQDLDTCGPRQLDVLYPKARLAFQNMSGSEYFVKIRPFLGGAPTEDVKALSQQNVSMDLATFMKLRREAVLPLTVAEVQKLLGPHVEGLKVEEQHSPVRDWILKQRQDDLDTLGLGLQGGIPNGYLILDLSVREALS

B1: Tab111 (scFv, not shown: small tags and cut ends)
scFv: DVVMTQTPASVSEPVGGTVTIKCQASQRISSYLSWYQQKPGQRPKLLIFGASTLASGVPSRFKGSGSGTEYTLTISDLECADAATYYCQSYAYFDSNNWHAFGGGTEVVVGGGGSGGGGSGGGGSQQQLEESGGGLVKPEGSLTLTCKASGFDLGFYFYACWVRQAPGKGLEWIACIYTAGSGSTYYASWAKGRFTISKASSTTVTLQMTSLAAADTATYFCARSTANTRSTYYLNLWGPGTLVTVSS
notes: also called YP218 VL-(G4S)3-VH-his antibody; positive control
B2: Tab110 (scFv, not shown: small tags and cut ends)
scFv: QQQLEESGGGLVKPEGSLTLTCKASGFDLGFYFYACWVRQAPGKGLEWIACIYTAGSGSTYYASWAKGRFTISKASSTTVTLQMTSLAAADTATYFCARSTANTRSTYYLNLWGPGTLVTVSSGGGGSGGGGSGGGGSDVVMTQTPASVSEPVGGTVTIKCQASQRISSYLSWYQQKPGQRPKLLIFGASTLASGVPSRFKGSGSGTEYTLTISDLECADAATYYCQSYAYFDSNNWHAFGGGTEVVV
notes: also called YP218 VH-(G4S)3-VL-his antibody; positive control
B3: S009-F2.16.10 (antibody, human IgG1, kappa, V domains shown)
VH: QVQLQQPGAELIKPGASVKLSCKASGYTFTSYWMHWVKQRPGQGLEWIGIIHPNIGSTNYNERFKSKATLTVDKSSSTAYMQLSSLTSEDSAVYYCARRSSNYGDWYFDVWGTGTTVTVSS
VL: DIVMTQSHRFMSTSVGDRVSITCKASQDVGTSVAWYQQKPGQSPKLLIYWASTQHTGVPDRFTGSGSGTDFTLTINNVQSEDLLDYFCQQYSSYPLTFGAGTKLELKR
notes: human-murine chimeric antibody, human IgG1/kappa constant regions
B4: S009-F2.23.12 (antibody, human IgG1, kappa, V domains shown)
VH: QVQLQQPGTELVKPGASVKLSCKASGYTFTNYWMHWVKQRPGQGLEWIGNINPSNGGPYYNERFRSKATLTVDKSSSTAYMQLSSLTSEDSAVYYCARPYYGSSYGYFDYWGQGTTLTVSS
VL: DIQMTQSPSSLSASLGGKVTITCKASQDINKYIAWYQHKPGKGPRLLIHYTSELQPGIPSRFSGNGSGRDYSFSISNLEPEDIATYYCLQYANPLRTFGGGTKLEIKR
notes: as for B3
B5: S009-F2-56.12 (antibody, human IgG1, kappa, V domains shown)
VH: DVQLQESGPGMVKPSQSLSLTCTVTGYSITSGYDWHWIRHFPGNKLEWMGYISYSGSTNYNPSLKSRISITHDTSKNHFFLKLKSVTTEDTATYYCARGTGPDYWGQGTTLTVSS
VL: DIVMTQSQKFMSTSVGDRVSITCKASQNVRTAVAWYQQKPGQSPKALIHLPSNRHTGVPDRFTGSGSGTDFTLTISNVQSEDLADYFCLQHWNYPLTFGGGTKLEIKR
notes: as for B3
B6: S009-F2.39.3 (antibody, human IgG1, kappa, V domains shown)
VH: QVQLQQPGTELVKPGASVKLSCKASGYTFTNYWMHWVKQRPGQGLEWIGNINPSSGDSYYNERFMSKAKMTVDKSSSTAYMQLSSLTSEDSAVYYCARSGGLWLAFWGPGTLVTVSA
VL: DIVMTQSPSSLAMSVGQKVTMSCKSSQTLLNSVSQNNYLAWYQQKPGQSPTLLVYFASTRESGVPDRFIGGGSGTDFTLTISSVQAEDLADYFCQQHYRTPYTFGGGTNLEIKR
notes: as for B3
B7: S009-F2.21.4 (antibody, human IgG1, kappa, V domains shown)
VH: EVQLQQSGPELVKPGASVKIPCKASGYTFTDYNMDWVKQSHGKSLEWIGDINPNNGGSIYNQRFKGKATLTVDKSSSTAYMELRSLTSEDSAVYYCARRAYYSTGYFDVWGTGTTVTVSS
VL: QIVLTQSPALMSASPGEKVTITCSASSSISYMHWFQQKPGTSPKLWIYSTSTLASGVPARFSGSGSGTSYSLTISRMEAEDTATYYCQQRSSYPPTFGGGTKLEIKR
notes: as for B3
B8: S009-F2.17.3 (antibody, human IgG1, kappa, V domains shown)
VH: QVQLQQPGTELVTPGASVKLSCKASGYSFTSYWMHWVKQRPGQGLEWIGNINPSNGDTFYNEKFKNKATLTVDKSSSTAYMQLSSLTSEDSAVYYCARGWLRDYWGQGTTLTVSS
VL: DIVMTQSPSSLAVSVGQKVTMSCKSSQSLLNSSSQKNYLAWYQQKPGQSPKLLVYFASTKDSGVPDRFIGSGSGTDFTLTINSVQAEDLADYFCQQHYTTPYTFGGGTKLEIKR
notes: as for B3
B9: S009-F2.13.3 (antibody, human IgG1, kappa, V domains shown)
VH: QVQLQQSGAELMKPGASVKLSCKATGYTFTGYWIEWVKQRPGHGLEWIGEILPGSGSTNYNEKFKGKATFTADTSSNTAYMQLSSLTTEDSAIYYCARAGAWFAYWGQGTLVTVSA
VL: QIVLTQSPAIMSASLGERVTMTCTASSSVSSSYLHWYQQKPGSSPKLWTYSTSNLASGVPARFSGSGSGTSYSLTISSMEAEDAATYYCHQYHRSPWTFGGGTKLEIKR
notes: as for B3
B10: S009-F2.47.1 (antibody, human IgG1, kappa, V domains shown)
VH: QVQLQQPGAELVKPGASVKLSCKASGYTFTSYWMHWVKQRPGQGLEWIGMIHPNSGSTNYNEKFKSKATLTVDKSSSTAYMQLSSLTSEDSAVYYCARPVVPYWYFDVWGTGTTVTVSS
VL: DIVMTQSQKFMSTTVGDRVSITCKASQNVGTAVAWYQQKPGQSPKLLIYSASNRYTGVPDRFTGSGSGTDFTLTISNMQSEDLADYFCQQSSSYPLTFGAGTKLELKR
notes: as for B3

Molecular target: T2, human MSLN-R3 protein (human, UniProt Q13421 487-598)
T2 construct: also called hMSLN-R3
T2 sequence (Q13421 495-606, form in doubt): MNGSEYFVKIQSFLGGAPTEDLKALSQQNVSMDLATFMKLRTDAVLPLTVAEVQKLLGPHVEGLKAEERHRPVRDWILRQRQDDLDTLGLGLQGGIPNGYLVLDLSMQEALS
Test: ELISA on coated antigen, antibody 0.01 nM

Row | OD450 | Binder
1 | 0.05 OD450 | B1
2 | 0.04 OD450 | B2

Molecular target: T2, human MSLN-R3 protein
Test: ELISA on coated antigen, antibody 0.01 nM
Remark: another data set of the same source

Row | OD450 | Binder
3 | 0.05 OD450 | B1
4 | 0.04 OD450 | B2

Molecular target: T2, human MSLN-R3 protein
Test: ELISA on coated antigen, antibody 0.1 nM

Row | OD450 | Binder
5 | 0.09 OD450 | B1
6 | 0.04 OD450 | B2

Molecular target: T2, human MSLN-R3 protein
Test: ELISA on coated antigen, antibody 0.001 nM

Row | OD450 | Binder
7 | 0.05 OD450 | B1
8 | 0.04 OD450 | B2

Molecular target: T3, human MSLN-R3 protein (Met487-Ser606 of NCBI AAH09272.1) expressed on HEK293T-hMSLN-R3 cells (human, UniProt Q13421 487-606)
T3 construct: also called Region3
T3 sequence (Q13421 495-614): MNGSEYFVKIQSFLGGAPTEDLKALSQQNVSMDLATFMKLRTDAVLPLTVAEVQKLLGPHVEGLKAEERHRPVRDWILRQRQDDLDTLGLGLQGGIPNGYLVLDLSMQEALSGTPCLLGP
Test: FACS on HEK293T-hMSLN-R3 cells
Description: (§1) The desired cells were expanded to the logarithmic growth phase in a T-75 cell culture flask. […] After the cells from the previous step were subjected to cell counting, the cell pellet was resuspended to 2×10⁶ cells/mL in a blocking buffer of [PBS+2% (w/w) BSA] and added into a 96-well FACS reaction plate at 50 μL/well. A chimeric antibody (a sample to be tested) was added at 50 μL/well, and the plate was incubated on ice for 2 h. […] After the plate was centrifuged and washed 5 times with a PBST buffer, assay and analysis were performed by FACS (FACS CantoII, purchased from BD). Data analysis was performed by software (Flowjo) to obtain the mean fluorescence intensity (MFI) of the cells.

Row | Maximum mean fluorescence intensity | binding result | EC50 | Binder
9 | 114 | no binding | – | B3
10 | 3880 | – | 0.5 nM | B4
11 | 94 | no binding | – | B5
12 | 3290 | – | 4.19 nM | B6
13 | 348 | no binding | – | B7
14 | 3840 | – | 1.48 nM | B8
15 | 112 | no binding | – | B9

Molecular target: T1, monkey MSLN full-length protein (NCBI: …)
Test: FACS on HEK293T-monkey MSLN cells
Description: as §1

Row | EC50 | Maximum mean fluorescence intensity | binding result | Binder
16 | 0.3 nM | 18400 | – | B3
17 | ~0.83 nM | 20400 | – | B4
18 | 0.32 nM | 17100 | – | B10
19 | – | 95 | no binding | B5
20 | 4.18 nM | 20800 | – | B6
21 | 0.44 nM | 20100 | – | B7
22 | 1.63 nM | 24300 | – | B8
23 | – | 138 | no binding | B9

Molecular target: T2, human MSLN-R3 protein
Test: ELISA on coated antigen, antibody 0.001 nM
Remark: another data set of the same source

Row | OD450 | Binder
24 | 0.05 OD450 | B1
25 | 0.04 OD450 | B2

Molecular target: T2, human MSLN-R3 protein
Test: ELISA on coated antigen, antibody 0.0001 nM

Row | OD450 | Binder
26 | 0.05 OD450 | B1
27 | 0.05 OD450 | B2

Molecular target: T2, human MSLN-R3 protein
Test: ELISA on coated antigen, antibody 0.0001 nM
Remark: another data set of the same source

Row | OD450 | Binder
28 | 0.05 OD450 | B1
29 | 0.05 OD450 | B2

Molecular target: T2, human MSLN-R3 protein
Test: ELISA on coated antigen, antibody 100 nM

Row | OD450 | Binder
30 | 2.1 OD450 | B1
31 | 0.98 OD450 | B2

Molecular target: T2, human MSLN-R3 protein
Test: ELISA on coated antigen, antibody 10 nM

Row | OD450 | Binder
32 | 1.88 OD450 | B1
33 | 0.78 OD450 | B2

Molecular target: T2, human MSLN-R3 protein
Test: ELISA on coated antigen, antibody 0.1 nM
Remark: another data set of the same source

Row | OD450 | Binder
34 | 0.09 OD450 | B1
35 | 0.04 OD450 | B2

Molecular target: T2, human MSLN-R3 protein
Test: ELISA on coated antigen, antibody 1 nM

Row | OD450 | Binder
36 | 0.51 OD450 | B1
37 | 0.06 OD450 | B2

Molecular target: T2, human MSLN-R3 protein
Test: ELISA on coated antigen, antibody 10 nM
Remark: another data set of the same source

Row | OD450 | Binder
38 | 1.88 OD450 | B1
39 | 0.78 OD450 | B2

Molecular target: T2, human MSLN-R3 protein
Test: ELISA on coated antigen, antibody 1 nM
Remark: another data set of the same source

Row | OD450 | Binder
40 | 0.51 OD450 | B1
41 | 0.06 OD450 | B2

Molecular target: T4, human MSLN protein endogenously expressed on OVCAR3 tumor cells (human, UniProt Q13421 296-598)
T4 construct: whole, on cells; Endogenous target on OVCAR3 cells; kept apart from the recombinant full-length construct; also called mesothelin
T4 sequence (Q13421 other isoform, or with tags, fused parts or gaps): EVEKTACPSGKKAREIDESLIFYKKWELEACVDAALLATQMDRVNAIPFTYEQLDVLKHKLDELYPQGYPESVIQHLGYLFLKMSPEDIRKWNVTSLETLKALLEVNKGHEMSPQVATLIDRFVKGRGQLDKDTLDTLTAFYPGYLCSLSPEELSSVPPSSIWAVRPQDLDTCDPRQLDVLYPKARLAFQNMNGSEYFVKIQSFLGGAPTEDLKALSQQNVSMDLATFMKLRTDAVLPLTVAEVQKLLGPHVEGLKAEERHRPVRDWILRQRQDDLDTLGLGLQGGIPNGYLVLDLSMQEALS
Test: FACS on OVCAR3 cells
Description: as §1

Row | EC50 | Maximum mean fluorescence intensity | Binder
42 | 2.96 nM | 14400 | B3
43 | 1 nM | 14600 | B4
44 | 10.4 nM | 15400 | B10
45 | 0.54 nM | 6140 | B5
46 | 5.52 nM | 14600 | B6
47 | – | 5260 | B7
48 | 2.92 nM | 17600 | B8
49 | 0.57 nM | 14800 | B9

Molecular target: T5, human MSLN full-length protein (NCBI: AAH09272.1) expressed on HEK293T-hMSLN-B8 cells (human, UniProt Q13421 296-598)
T5 construct: Whole encoded precursor
T5 sequence (Q13421 other isoform, or with tags, fused parts or gaps limits assumed): as the sequence (Q13421 other isoform, or with tags, fused parts or gaps) above, with R14P counted along it
Test: FACS on HEK293T-hMSLN-B8 cells
Description: as §1

Row | EC50 | Maximum mean fluorescence intensity | Binder
50 | 0.88 nM | 109000 | B3
51 | 2.39 nM | 144000 | B4
52 | ~0.82 nM | 98200 | B10
53 | ~0.79 nM | 67000 | B5
54 | 5.79 nM | 138000 | B6
55 | ~0.82 nM | 91800 | B7
56 | 3.95 nM | 148000 | B8
57 | 1.15 nM | 112000 | B9

Molecular target: T2, human MSLN-R3 protein
Test: ELISA on coated antigen, antibody 100 nM
Remark: another data set of the same source

Row | OD450 | Binder
58 | 2.1 OD450 | B1
59 | 0.98 OD450 | B2
